Test results taken from PMC5612765.

What was measured:
[1] = tested on: T1, Fis (His-tagged) (Pseudomonas putida), ORF:eb421da7; assay: EMSA with competition; details: EMSA: 24 mM Tris/HCl pH 7.5, 50 mM KCl, 10 mM MgCl2, 1 mM CaCl2, 0.1 mM EDTA, 5% glycerol, 0.05 ug/ul BSA, 0.05 ug/ul salmon sperm DNA, 20 min room …
T1 sequence: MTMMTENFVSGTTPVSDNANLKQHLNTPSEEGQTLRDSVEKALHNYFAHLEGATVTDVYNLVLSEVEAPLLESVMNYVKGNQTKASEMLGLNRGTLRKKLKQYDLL

[2] = tested on: T1, Fis (His-tagged) (Pseudomonas putida), ORF:eb421da7; assay: DNase I footprinting; details: EMSA: 24 mM Tris/HCl pH 7.5, 50 mM KCl, 10 mM MgCl2, 1 mM CaCl2, 0.1 mM EDTA, 5% glycerol, 0.05 ug/ul BSA, 0.05 ug/ul salmon sperm DNA, 20 min room …

| Sequence | binding [1] | binding [2] |
| --- | --- | --- |
| AGGATCCGAAACGCTTGGCTAAGGTACAAATATCAATGTGACATTACATTGCCGATTGTTTAGGATGGCATGTATAAGCTGAATAGTTTGGAGGTCAGGCAATTCCAAAAAGTTATAGACGGAATATTGACGTCAAAAACGTCAAGAGATCATCGACATAGTTCCGCCTGAAGTGGCTAGCAAGCGCCGCTCTGGCAGGGAAGTACC (double strand) [Fis-A1-Fis-A2mut fragment] | binds more weakly | – |
| AGGATCCGAAACGCTTGGCTAAGGTACAAATATCAATGTGACATTACATTGCCGATTGTTTAGGATGGCATGTATAAGGTCAATAGTTTGGCAGTCAGGCAATTCCAAAAAGTTATAGACGGAATATTGACGTCACCCACGTGCCGAGATCATCGACATAGTTCCGCCTGAAGTGGCTAGCAAGCGCCGCTCTGGCAGGGAAGTACC (double strand) [Fis-A1mut-Fis-A2 fragment] | binds more weakly | – |
| GGTACTTCCCTGCCAGAGCGGCGCTTGCTAGCCACTTCAGGCGGAACTATGTCGATGATCTCTTGACGTTTTTGACGTCAATATTCCGTCTATAACTTTTTGGAATTGCCTGACTGCCAAACTATTGACCTTATACATGCCATCCTAAACAATCGGCAATGTAATGTCACATTGATATTTGTACCTTAGCCAAGCGTTTCGGATCCT (double strand) [lapA Fis-A1/Fis-A2 fragment WT] | binds | binds |
| TGCTGATAAGGGTTATCACGCCCTGGTGCTGGAGCAGCTGGCCAATGTTCGCCTTGAATCGGTGTTGAGTAAACAATTCTACGTGCTTCATTTTCACCAGACTTAGCGGGGCAATGATTCTGACAGGCCTGATCCAGCCATCATCCGGCTTGTTGCAGCATAGCCTGCCACTCAGCCAAGGCATGCAAGGGCTTTGGGTTCCAGCTTAGTCACTGTCAGTAAACAGGCGCTGGATCCA (double strand) [Fis-A7mut fragment] | binds more weakly | – |
| TGCTGATAAGGGTTATCACGCCCTGGTGCTGGAGCAGCTGGCCAATGTTCGCCTTGAATCGGTGTTGAGTAAACAATTCTACGTGCTTCATTTTCACCAGACTTAGCGGGGCAATGATTGTTTCATTTTTGATCCAGCCATCATCCGGCTTGTTGCAGCATAGCCTGCCACTCAGCCAAGGCATGCAAGGGCTTTGGGTTCCAGCTTAGTCACTGTCAGTAAACAGGCGCTGGATCCA (double strand) [lapA Fis-A7 fragment WT] | binds | binds |
| TTGAATTCATGCAAGGGCTTTGGGTTCCAGCTTAGTCACTGTCAGTAAACAGGCGCTGGTTTGTTGGCGCATATCTGTGGCTTGTTAGTCAAAATTCATCTATAGAGTGCGGATTCTTGCCTTCTTGCATTCAATATCCGCAAGCGATTTTCAATGATCGGGATACCATTATTCACGCACTCGTCGGTCATCTCTTTGATTTGCGACACATAGCTGCTTGTGACTCGGATCCAAA (double strand) [lapA Fis-A5/Fis-A6 fragment WT] | binds | binds |
| TTTGGATCCGAGTCACAAGCAGCTATGTGTCGCAAATCAAAGAGATGACCGACGAGTGCGTGAATAATGGTATCCCGATCATTGAAAATCGCTTGCGGAGGCTGACTGGGAGAAGGCAAGAATCCGCACTCTATAGATGAATTTTGACTAACAAGCCACAGATATGCGCCAACAAACCAGCGCCTGTTTACTGACAGTGACTAAGCTGGAACCCAAAGCCCTTGCATGAATTCAA (double strand) [Fis-A5mut-Fis-A6 fragment] | binds more weakly | – |
| TTTGGATCCGAGTCACAAGCAGCTATGTGTCGCAAATCAAAGAGATGACCGACGAGTGCGTGAATAATGGTATCCCGATCATTGAAAATCGCTTGCGGATATTGAATGCAAGAAGGCAAGAATCCGCACTCTATACACGTAGGCCGACTAACAAGCCACAGATATGCGCCAACAAACCAGCGCCTGTTTACTGACAGTGACTAAGCTGGAACCCAAAGCCCTTGCATGAATTCAA (double strand) [Fis-A5-Fis-A6mut fragment] | binds more weakly | – |
